Source: PMC5564220 (Cell reports, 2017)
“And” between values parts separate entries of the source, which are not always exact repeats. Equal entries are not always repeated. Each block holds one binder with its values, some of them ahead of it.

Experiments:
[1] = molecular target: T1, Rvb1/Rvb2 complex (untagged hexamer) (S. cerevisiae, UniProt Q03940 1-463; Q12464 1-471); experiment: SEC-MALS
[2] = molecular target: T1, Rvb1/Rvb2 complex (untagged hexamer); experiment: native MS
Rvb2 [3] = molecular target: T2, Rvb2 (S. cerevisiae, UniProt Q12464 1-471); experiment: intact denatured mass spectrometry
Rvb2 [4] = molecular target: T2, Rvb2; experiment: native MS

T1 sequence (Q12464 whole entry, one chain of several): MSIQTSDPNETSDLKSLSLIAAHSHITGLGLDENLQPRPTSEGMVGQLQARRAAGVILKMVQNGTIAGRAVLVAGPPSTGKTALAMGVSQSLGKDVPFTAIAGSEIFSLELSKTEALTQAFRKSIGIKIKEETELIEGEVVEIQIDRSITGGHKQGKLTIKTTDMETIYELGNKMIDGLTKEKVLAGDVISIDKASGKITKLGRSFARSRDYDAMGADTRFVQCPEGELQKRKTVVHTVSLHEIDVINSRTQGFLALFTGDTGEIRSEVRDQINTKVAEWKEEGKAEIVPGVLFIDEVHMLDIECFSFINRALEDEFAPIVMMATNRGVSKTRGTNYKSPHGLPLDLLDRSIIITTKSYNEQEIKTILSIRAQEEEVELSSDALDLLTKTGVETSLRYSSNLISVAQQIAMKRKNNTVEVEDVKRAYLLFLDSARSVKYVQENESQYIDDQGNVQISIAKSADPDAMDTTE
T2 sequence (Q12464 whole entry): as the sequence (Q12464 whole entry, one chain of several) above

stoichiometry N [1]: ≥ 2 copies of Ino80INS per Rvb1/Rvb2 dodecamer
B1: MBP-Ino80INS (insertion domain of the Ino80 ATPase, residues 1022-1294, MBP fusion with C-terminal histidine tag) (domain or fragment, yeast, UniProt P53115 1022-1294, looked up)
chain: VDSPFSFTTFGKTTSMLTASVANNNSSVISNSNMNLSSMSSNNISNGKFTDLIYSSRNPIKYSLPRLIYEDLILPNYNNDVDIANKLKNVKFNIFNPSTNYELCLFLSKLTGEPSLNEFFRVSTTPLLKRVIERTNGPKNTDSLSFKTITQELLEVTRNAPSEGVMASLLNVEKHAYEREYLNCIQRGYHPNVSAPPVTIEVLGSSHVTNSINNELFDPLISQALSDIPAITQYNMHVKKGIPVEDFPKTGLFPEPLNKNFSSNISMPSMDRF
stoichiometry N [2]: 3 copies of Ino80INS per Rvb1/Rvb2 dodecamer and 1 copies of MBP-Ino80INS per Rvb1/Rvb2 hexamer and 2 copies of Ino80INS per Rvb1/Rvb2 dodecamer

stoichiometry N (Rvb2 [3]): 1 Rvb1 per Rvb2 (3:3)
stoichiometry N (Rvb2 [4]): 1 Rvb1 per Rvb2 (3:3 in the hexamer)
B2: Rvb1 (enzyme, S. cerevisiae, UniProt Q03940 1-463, looked up)
chain: MVAISEVKENPGVNSSNSGAVTRTAAHTHIKGLGLDESGVAKRVEGGFVGQIEAREACGVIVDLIKAKKMSGRAILLAGGPSTGKTALALAISQELGPKVPFCPLVGSELYSVEVKKTETLMENFRRAIGLRIKETKEVYEGEVTELTPEDAENPLGGYGKTISHVIVGLKSAKGTKTLRLDPTIYESIQREKVSIGDVIYIEANTGAVKRVGRSDAYATEFDLETEEYVPLPKGEVHKKKEIVQDVTLHDLDVANARPQGGQDVISMMGQLLKPKKTEITEKLRQEVNKVVAKYIDQGVAELIPGVLFIDEVNMLDIEIFTYLNKALESNIAPVVVLASNRGMTTVRGTEDVISPHGVPPDLIDRLLIVRTLPYDKDEIRTIIERRATVERLQVESSALDLLATMGTETSLRYALQLLAPCGILAQTSNRKEIVVNDVNEAKLLFLDAKRSTKILETSANYL
